System: coxsackievirus B3 (CVB3-GFP)
Assay type: cell-based
Conditions: HeLa cells, replicate R1; for Percent Infected R1: GFP-positive cells within RFP-positive gate

B1: TRIM18: human RING type E3 ligase expressed from lentiviral vector (protein, UniProt O15344 1-667, looked up)
E3 ubiquitin-protein ligase …: METLESELTCPICLELFEDPLLLPCAHSLCFNCAHRILVSHCATNESVESITAFQCPTCRHVITLSQRGLDGLKRNVTLQNIIDRFQKASVSGPNSPSETRRERAFDANTMTSAEKVLCQFCDQDPAQDAVKTCVTCEVSYCDECLKATHPNKKPFTGHRLIEPIPDSHIRGLMCLEHEDEKVNMYCVTDDQLICALCKLVGRHRDHQVAALSERYDKLKQNLESNLTNLIKRNTELETLLAKLIQTCQHVEVNASRQEAKLTEECDLLIEIIQQRRQIIGTKIKEGKVMRLRKLAQQIANCKQCIERSASLISQAEHSLKENDHARFLQTAKNITERVSMATASSQVLIPEINLNDTFDTFALDFSREKKLLECLDYLTAPNPPTIREELCTASYDTITVHWTSDDEFSVVSYELQYTIFTGQANVVSLCNSADSWMIVPNIKQNHYTVHGLQSGTKYIFMVKAINQAGSRSSEPGKLKTNSQPFKLDPKSAHRKLKVSHDNLTVERDESSSKKSHTPERFTSQGSYGVAGNVFIDSGRHYWEVVISGSTWYAIGLAYKSAPKHEWIGKNSASWALCRCNNNWVVRHNSKEIPIEPAPHLRRVGILLDYDNGSIAFYDALNSIHLYTFDVAFAQPVCPTFTVWNKCLTIITGLPIPDHLDCTEQLP
modifications: lentiviral expression
notes: human RING type E3 ligase expressed from lentiviral vector
- Percent Infected R1: 71.6%
- Z score R1: −0.216

B2: TRIM19: human RING type E3 ligase expressed from lentiviral vector (protein, UniProt P29590 1-882, looked up)
Protein PML: MEPAPARSPRPQQDPARPQEPTMPPPETPSEGRQPSPSPSPTERAPASEEEFQFLRCQQCQAEAKCPKLLPCLHTLCSGCLEASGMQCPICQAPWPLGADTPALDNVFFESLQRRLSVYRQIVDAQAVCTRCKESADFWCFECEQLLCAKCFEAHQWFLKHEARPLAELRNQSVREFLDGTRKTNNIFCSNPNHRTPTLTSIYCRGCSKPLCCSCALLDSSHSELKCDISAEIQQRQEELDAMTQALQEQDSAFGAVHAQMHAAVGQLGRARAETEELIRERVRQVVAHVRAQERELLEAVDARYQRDYEEMASRLGRLDAVLQRIRTGSALVQRMKCYASDQEVLDMHGFLRQALCRLRQEEPQSLQAAVRTDGFDEFKVRLQDLSSCITQGKDAAVSKKASPEAASTPRDPIDVDLPEEAERVKAQVQALGLAEAQPMAVVQSVPGAHPVPVYAFSIKGPSYGEDVSNTTTAQKRKCSQTQCPRKVIKMESEEGKEARLARSSPEQPRPSTSKAVSPPHLDGPPSPRSPVIGSEVFLPNSNHVASGAGEAEERVVVISSSEDSDAENSSSRELDDSSSESSDLQLEGPSTLRVLDENLADPQAEDRPLVFFDLKIDNETQKISQLAAVNRESKFRVVIQPEAFFSIYSKAVSLEVGLQHFLSFLSSMRRPILACYKLWGPGLPNFFRALEDINRLWEFQEAISGFLAALPLIRERVPGASSFKLKNLAQTYLARNMSERSAMAAVLAMRDLCRLLEVSPGPQLAQHVYPFSSLQCFASLQPLVQAAVLPRAEARLLALHNVSFMELLSAHRRDRQGGLKKYSRYLSLQTTTLPPAQPAFNLQALGTYFEGLLEGPALARAEGVSTPLAGRGLAERASQQS
- Percent Infected R1: 60.8%
- Z score R1: −0.354

B3: TRIM15: human RING type E3 ligase expressed from lentiviral vector (protein, UniProt Q9C019 1-465, looked up)
E3 ubiquitin-protein ligase …: MPATPSLKVVHELPACTLCAGPLEDAVTIPCGHTFCRLCLPALSQMGAQSSGKILLCPLCQEEEQAETPMAPVPLGPLGETYCEEHGEKIYFFCENDAEFLCVFCREGPTHQAHTVGFLDEAIQPYRDRLRSRLEALSTERDEIEDVKCQEDQKLQVLLTQIESKKHQVETAFERLQQELEQQRCLLLARLRELEQQIWKERDEYITKVSEEVTRLGAQVKELEEKCQQPASELLQDVRVNQSRCEMKTFVSPEAISPDLVKKIRDFHRKILTLPEMMRMFSENLAHHLEIDSGVITLDPQTASRSLVLSEDRKSVRYTRQKKSLPDSPLRFDGLPAVLGFPGFSSGRHRWQVDLQLGDGGGCTVGVAGEGVRRKGEMGLSAEDGVWAVIISHQQCWASTSPGTDLPLSEIPRGVRVALDYEAGQVTLHNAQTQEPIFTFTASFSGKVFPFFAVWKKGSCLTLKG
modifications: lentiviral expression
notes: as for B1
- Percent Infected R1: 66.8%
- Z score R1: −0.277

B4: TRIM17: human RING type E3 ligase expressed from lentiviral vector (protein, UniProt Q9Y577 1-477, looked up)
E3 ubiquitin-protein ligase …: MEAVELARKLQEEATCSICLDYFTDPVMTTCGHNFCRACIQLSWEKARGKKGRRKRKGSFPCPECREMSPQRNLLPNRLLTKVAEMAQQHPGLQKQDLCQEHHEPLKLFCQKDQSPICVVCRESREHRLHRVLPAEEAVQGYKLKLEEDMEYLREQITRTGNLQAREEQSLAEWQGKVKERRERIVLEFEKMNLYLVEEEQRLLQALETEEEETASRLRESVACLDRQGHSLELLLLQLEERSTQGPLQMLQDMKEPLSRKNNVSVQCPEVAPPTRPRTVCRVPGQIEVLRGFLEDVVPDATSAYPYLLLYESRQRRYLGSSPEGSGFCSKDRFVAYPCAVGQTAFSSGRHYWEVGMNITGDALWALGVCRDNVSRKDRVPKCPENGFWVVQLSKGTKYLSTFSALTPVMLMEPPSHMGIFLDFEAGEVSFYSVSDGSHLHTYSQATFPGPLQPFFCLGAPKSGQMVISTVTMWVKG
- Percent Infected R1: 75.9%
- Z score R1: −0.162

B5: TRIM13: human RING type E3 ligase expressed from lentiviral vector (protein, UniProt O60858 1-407, looked up)
E3 ubiquitin-protein ligase …: MELLEEDLTCPICCSLFDDPRVLPCSHNFCKKCLEGILEGSVRNSLWRPAPFKCPTCRKETSATGINSLQVNYSLKGIVEKYNKIKISPKMPVCKGHLGQPLNIFCLTDMQLICGICATRGEHTKHVFCSIEDAYAQERDAFESLFQSFETWRRGDALSRLDTLETSKRKSLQLLTKDSDKVKEFFEKLQHTLDQKKNEILSDFETMKLAVMQAYDPEINKLNTILQEQRMAFNIAEAFKDVSEPIVFLQQMQEFREKIKVIKETPLPPSNLPASPLMKNFDTSQWEDIKLVDVDKLSLPQDTGTFISKIPWSFYKLFLLILLLGLVIVFGPTMFLEWSLFDDLATWKGCLSNFSSYLTKTADFIEQSVFYWEQVTDGFFIFNERFKNFTLVVLNNVAEFVCKYKLL
modifications: lentiviral expression
notes: as for B1
- Percent Infected R1: 53%
- Z score R1: −0.453

B6: TRIM14: human RING type E3 ligase expressed from lentiviral vector (protein, UniProt Q14142 1-442, looked up)
Tripartite motif-containing …: MAGAATGSRTPGRSELVEGCGWRCPEHGDRVAELFCRRCRRCVCALCPVLGAHRGHPVGLALEAAVHVQKLSQECLKQLAIKKQQHIDNITQIEDATEKLKANAESSKTWLKGKFTELRLLLDEEEALAKKFIDKNTQLTLQVYREQADSCREQLDIMNDLSNRVWSISQEPDPVQRLQAYTATEQEMQQQMSLGELCHPVPLSFEPVKSFFKGLVEAVESTLQTPLDIRLKESINCQLSDPSSTKPGTLLKTSPSPERSLLLKYARTPTLDPDTMHARLRLSADRLTVRCGLLGSLGPVPVLRFDALWQVLARDCFATGRHYWEVDVQEAGAGWWVGAAYASLRRRGASAAARLGCNRQSWCLKRYDLEYWAFHDGQRSRLRPRDDLDRLGVFLDYEAGVLAFYDVTGGMSHLHTFRATFQEPLYPALRLWEGAISIPRLP
- Percent Infected R1: 70.6%
- Z score R1: −0.229

Source: patent US12104181B2, “Compositions and methods for treating viral infections targeting TRIM7” (THE BOARD OF REGENTS OF THE UNIVERSITY OF TEXAS SYSTEM, priority 2021, dated 2024)
